Results reported in paper PMC3416963.

Substrate: O=C(O)c1cc(C(=O)O)oc(=O)c1
Assay: purified protein
Format: biochemical, Sphingobium sp. SYK-6
Details: 50 mM BICINE pH 8.25, 30 °C

Protein | Km [µM] | kcat [s⁻¹] | kcat/Km [M⁻¹ s⁻¹]
LigI (Sphingobium sp. SYK-6; H178A) (protein) TNDERILSWNETPSKPRYTPPPGAIDAHCHVFGPMAQFPFSPKAKYLPRDAGPDMLFALRDHLGFARNVIVQASCHGTDNAATLDAIARAQGKARGIAVVDPAIDEAELAALHEGGMRGIRFNFLKRLVDDAPKDKFLEVAGRLPAGWHVVIYFEADILEELRPFMDAIPVPIVIDAMGRPDVRQGPDGADMKAFRRLLDSREDIWFKATCPDRLDPAGPPWDDFARSVAPLVADYADRVIWGTDWPHPNMQDAIPDDGLVVDMIPRIAPTPELQHKMLVTNPMRLYWSEEM | 214 ± 44 | 8 ± 0.9 | 37000 ± 4000
LigI (Sphingobium sp. SYK-6; Y47F) (protein) TNDERILSWNETPSKPRYTPPPGAIDAHCHVFGPMAQFPFSPKAKFLPRDAGPDMLFALRDHLGFARNVIVQASCHGTDNAATLDAIARAQGKARGIAVVDPAIDEAELAALHEGGMRGIRFNFLKRLVDDAPKDKFLEVAGRLPAGWHVVIYFEADILEELRPFMDAIPVPIVIDHMGRPDVRQGPDGADMKAFRRLLDSREDIWFKATCPDRLDPAGPPWDDFARSVAPLVADYADRVIWGTDWPHPNMQDAIPDDGLVVDMIPRIAPTPELQHKMLVTNPMRLYWSEEM | 217 ± 41 | 26 ± 2 | 120000 ± 2000
LigI (Sphingobium sp. SYK-6; H178C) (protein) TNDERILSWNETPSKPRYTPPPGAIDAHCHVFGPMAQFPFSPKAKYLPRDAGPDMLFALRDHLGFARNVIVQASCHGTDNAATLDAIARAQGKARGIAVVDPAIDEAELAALHEGGMRGIRFNFLKRLVDDAPKDKFLEVAGRLPAGWHVVIYFEADILEELRPFMDAIPVPIVIDCMGRPDVRQGPDGADMKAFRRLLDSREDIWFKATCPDRLDPAGPPWDDFARSVAPLVADYADRVIWGTDWPHPNMQDAIPDDGLVVDMIPRIAPTPELQHKMLVTNPMRLYWSEEM | 41 ± 7 | 32 ± 4 | 780000 ± 50000
LigI (Sphingobium sp. SYK-6; R128M) (protein) TNDERILSWNETPSKPRYTPPPGAIDAHCHVFGPMAQFPFSPKAKYLPRDAGPDMLFALRDHLGFARNVIVQASCHGTDNAATLDAIARAQGKARGIAVVDPAIDEAELAALHEGGMRGIRFNFLKMLVDDAPKDKFLEVAGRLPAGWHVVIYFEADILEELRPFMDAIPVPIVIDHMGRPDVRQGPDGADMKAFRRLLDSREDIWFKATCPDRLDPAGPPWDDFARSVAPLVADYADRVIWGTDWPHPNMQDAIPDDGLVVDMIPRIAPTPELQHKMLVTNPMRLYWSEEM | 465 ± 104 | 5 ± 0.4 | 11000 ± 7000
LigI (Sphingobium sp. SYK-6; D246N) (protein) TNDERILSWNETPSKPRYTPPPGAIDAHCHVFGPMAQFPFSPKAKYLPRDAGPDMLFALRDHLGFARNVIVQASCHGTDNAATLDAIARAQGKARGIAVVDPAIDEAELAALHEGGMRGIRFNFLKRLVDDAPKDKFLEVAGRLPAGWHVVIYFEADILEELRPFMDAIPVPIVIDHMGRPDVRQGPDGADMKAFRRLLDSREDIWFKATCPDRLDPAGPPWDDFARSVAPLVADYADRVIWGTNWPHPNMQDAIPDDGLVVDMIPRIAPTPELQHKMLVTNPMRLYWSEEM | 66 ± 13 | 0.023 ± 0.001 | 200 ± 34
LigI (Sphingobium sp. SYK-6; H29N) (protein) TNDERILSWNETPSKPRYTPPPGAIDANCHVFGPMAQFPFSPKAKYLPRDAGPDMLFALRDHLGFARNVIVQASCHGTDNAATLDAIARAQGKARGIAVVDPAIDEAELAALHEGGMRGIRFNFLKRLVDDAPKDKFLEVAGRLPAGWHVVIYFEADILEELRPFMDAIPVPIVIDHMGRPDVRQGPDGADMKAFRRLLDSREDIWFKATCPDRLDPAGPPWDDFARSVAPLVADYADRVIWGTDWPHPNMQDAIPDDGLVVDMIPRIAPTPELQHKMLVTNPMRLYWSEEM | 720 ± 122 | 0.4 ± 0.04 | 500 ± 37
LigI (Sphingobium sp. SYK-6; H31N) (protein) TNDERILSWNETPSKPRYTPPPGAIDAHCNVFGPMAQFPFSPKAKYLPRDAGPDMLFALRDHLGFARNVIVQASCHGTDNAATLDAIARAQGKARGIAVVDPAIDEAELAALHEGGMRGIRFNFLKRLVDDAPKDKFLEVAGRLPAGWHVVIYFEADILEELRPFMDAIPVPIVIDHMGRPDVRQGPDGADMKAFRRLLDSREDIWFKATCPDRLDPAGPPWDDFARSVAPLVADYADRVIWGTDWPHPNMQDAIPDDGLVVDMIPRIAPTPELQHKMLVTNPMRLYWSEEM | 89 ± 20 | 3.6 ± 0.3 | 41000 ± 6000
LigI (Sphingobium sp. SYK-6; R122M) (protein) TNDERILSWNETPSKPRYTPPPGAIDAHCHVFGPMAQFPFSPKAKYLPRDAGPDMLFALRDHLGFARNVIVQASCHGTDNAATLDAIARAQGKARGIAVVDPAIDEAELAALHEGGMRGIMFNFLKRLVDDAPKDKFLEVAGRLPAGWHVVIYFEADILEELRPFMDAIPVPIVIDHMGRPDVRQGPDGADMKAFRRLLDSREDIWFKATCPDRLDPAGPPWDDFARSVAPLVADYADRVIWGTDWPHPNMQDAIPDDGLVVDMIPRIAPTPELQHKMLVTNPMRLYWSEEM | 90 ± 15 | 0.02 ± 0.001 | 200 ± 22
LigI (Sphingobium sp. SYK-6; Y154F) (protein) TNDERILSWNETPSKPRYTPPPGAIDAHCHVFGPMAQFPFSPKAKYLPRDAGPDMLFALRDHLGFARNVIVQASCHGTDNAATLDAIARAQGKARGIAVVDPAIDEAELAALHEGGMRGIRFNFLKRLVDDAPKDKFLEVAGRLPAGWHVVIFFEADILEELRPFMDAIPVPIVIDHMGRPDVRQGPDGADMKAFRRLLDSREDIWFKATCPDRLDPAGPPWDDFARSVAPLVADYADRVIWGTDWPHPNMQDAIPDDGLVVDMIPRIAPTPELQHKMLVTNPMRLYWSEEM | 238 ± 19 | 8.7 ± 0.3 | 37000 ± 200
